In data set [1] the target is AceI (Acinetobacter chlorhexidine efflux protein I) (Acinetobacter baumannii, UniProt P0DUT9, E15Q). The data set can be described thus: native mass spectrometry of purified mutant. It counts as binding.
The target of data set [2] is AceR (Acinetobacter chlorhexidine efflux protein regulator) (Acinetobacter baumannii, UniProt P0DUU5). The data set can be described thus: isothermal titration calorimetry (AceR^CTD); native MS titration (AceR^FL). It counts as binding. The source says: isothermal titration calorimetry (AceR^CTD); native MS titration (AceR^FL) on AceR (Acinetobacter chlorhexidine efflux protein regulator) | we used isothermal titration calorimetry.
(In general: Isothermal titration calorimetry measures the heat released or taken up as one component is titrated into another.)

Data set [3] concerns the target T1, AceI (Acinetobacter chlorhexidine efflux protein I) (Acinetobacter baumannii, UniProt P0DUT9).
T1 construct: amino acid residues 36 to 179, with a C-terminal hexahistidine tag
Kind of data set: native mass spectrometry of purified protein in detergent. It counts as binding.

Data set [4] addresses AceI (Acinetobacter chlorhexidine efflux protein I), truncated form, residues 36 to 179 with a C-ter (A. baumannii). The data set can be described thus: native MS.
In data set [5] the target is AceI (Acinetobacter chlorhexidine efflux protein I), truncated form, residues 36 to 179, with C-term (A. baumannii). Kind of data set: native MS.
Data set [6] deals with BRIL (apocytochrome b562RIL)-fusion construct of full-length AceI (residues 1 to 179) (A. baumannii) (UniProt P0DUT9). The data set can be described thus: native MS.
Data set [7] concerns the target BRIL (apocytochrome b562RIL)-fusion construct of truncated AceI (residues 36 to 179) (A. baumannii). Kind of data set: native MS.
In data set [8] the target is BRIL (apocytochrome b562RIL)-fusion of full-length AceI (residues 1 to 179) (A. baumannii) (UniProt P0DUT9). Kind of data set: native MS.
The target in data set [9] is BRIL (apocytochrome b562RIL)-fusion of truncated AceI (residues 36 to 179) (A. baumannii). Kind of data set: native MS.
Data set [10] has as its target E15Q AceI mutant (A. baumannii). Kind of data set: native MS.
For data set [11], the target named is T2, AceRFL (BRIL-AceR full length) (Acinetobacter baumannii, UniProt P0DUU5 1-297).
T2 sequence: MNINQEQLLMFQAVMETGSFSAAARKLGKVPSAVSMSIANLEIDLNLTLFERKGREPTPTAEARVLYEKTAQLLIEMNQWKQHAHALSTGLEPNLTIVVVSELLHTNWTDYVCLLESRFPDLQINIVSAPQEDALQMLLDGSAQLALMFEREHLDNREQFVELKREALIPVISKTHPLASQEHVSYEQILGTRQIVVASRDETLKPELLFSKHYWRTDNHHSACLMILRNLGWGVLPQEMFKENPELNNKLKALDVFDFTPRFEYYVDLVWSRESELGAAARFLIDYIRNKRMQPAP
Kind of data set: native MS; no chlorhexidine; one RS2 per dimer; native MS; 200 mM ammonium acetate, pH 8.0 (AceRFL-DNA); temperature not stated. The settings on record: protein: recombinant; tags: N-terminal BRIL (apocytochrome b562RIL) fusion; 6xHis; chain copies: 2; blunt.

Data set [12] deals with the molecule itself. The data set can be described thus: native MS.
Data set [13] concerns the molecule itself. The data set can be described thus: native MS. This is another data set of the same source.
Data set [14] concerns the molecule itself. Kind of data set: native MS. This is another data set of the same source.
Data set [15] deals with T2, AceRFL (BRIL-AceR full length). Kind of data set: native MS; 2 uM AceRFL, 2 uM RS1, no chlorhexidine; one RS1 per dimer; native MS; 200 mM ammonium acetate, pH 8.0 (AceRFL-DNA); temperature not stated. The settings on record: protein: recombinant; tags: N-terminal BRIL (apocytochrome b562RIL) fusion; 6xHis; chain copies: 2; blunt.

“And” between values parts separate entries of the source, which are not always exact repeats. Equal entries are not always repeated. Where two headings read alike, the source gives them in different places.

The term Kd denotes the free concentration of one partner at which half of the binding sites on the other are occupied at equilibrium, for simple one-to-one binding. As usually defined, the stoichiometry N is the number of molecules, sites or subunits per partner or assembly.

As for `[H]/N=C(\N/C(=N/[H])NCCCCCCNC(=N)NC(=N)Nc1ccc(Cl)cc1)Nc1ccc(Cl)cc1` [chlorhexidine], the “native mass spectrometry of purified mutant” value in data set [1] was “E15Q mutant and found that the binding of chlorhexidine also increased the dimer population of the mutant”. The same molecule gave an equilibrium dissociation constant (Kd) in data set [2] of around 16 µM. Also, in data set [3], the “native mass spectrometry of purified protein in detergent” value is “when tested with chlorhexidine, we observed multiple low-occupancy binding of up to three chlorhexidine molecules”. Turning to “AceI (Acinetobacter chlorhexidine efflux protein I), truncated form, residues 36 to 179 with a C-ter (domain or fragment)”, in [4], the dissociation constant (Kd) was determined as 5.69 µM and the stoichiometry N is 2.

In the case of “AceI (Acinetobacter chlorhexidine efflux protein I), truncated form, residues 36 to 179, with C-term (domain or fragment)”, in data set [5], the Kd was found to be 0.92 µM and the stoichiometry N is 2.

Turning to “BRIL (apocytochrome b562RIL)-fusion construct of full-length AceI (residues 1 to 179) (from UniProt P0DUT9 1-144) (natural protein)”, in data set [6], the stoichiometry N was found to be 2. The molecule “BRIL (apocytochrome b562RIL)-fusion construct of truncated AceI (residues 36 to 179) (domain or fragment)” registered a stoichiometry N in data set [7] of 2.

As to “BRIL (apocytochrome b562RIL)-fusion of full-length AceI (residues 1 to 179) (from UniProt P0DUT9 1-144) (natural protein)”, in data set [8], the stoichiometry N amounted to 2. “BRIL (apocytochrome b562RIL)-fusion of truncated AceI (residues 36 to 179) (domain or fragment)” came in with a stoichiometry N in data set [9] of 2. As to E15Q AceI mutant (domain or fragment), in data set [10], the Kd is 17.5 µM and 18.4 µM.

B1: RS2 (site 2, 34 bp) (dsDNA)
DNA 1: ACTCTTCAACAAGAACTAATTATAAGTAGACAGT
DNA 2: ACTGTCTACTTATAATTAGTTCTTGTTGAAGAGT
With B1, the binding result in data set [11] is listed as “binds”.

B2: AceR^FL: full-length AceR (Acinetobacter chlorhexidine efflux protein regulator) with a Bril fusion at the N terminus (natural protein)
chain: T2 sequence
notes: source: E. coli C43(DE3), purified (HisTrap-HP)
On to B2, for which the “stoichiometry N” value is 2 and 4 in [12]; 4 in [13].

B3: AceR^FL: full-length AceR (Acinetobacter chlorhexidine efflux protein regulator) with a Bril fusion at the N terminus (natural protein)
chain: T2 sequence
notes: source: expressed in high yields, purified
Take B3: the “stoichiometry N” value in data set [14] is 2 and 4.

B4: AceR^CTD: inducer-binding domain of AceR (amino acid residues 90 to 297) (domain or fragment)
chain: GLEPNLTIVVVSELLHTNWTDYVCLLESRFPDLQINIVSAPQEDALQMLLDGSAQLALMFEREHLDNREQFVELKREALIPVISKTHPLASQEHVSYEQILGTRQIVVASRDETLKPELLFSKHYWRTDNHHSACLMILRNLGWGVLPQEMFKENPELNNKLKALDVFDFTPRFEYYVDLVWSRESELGAAARFLIDYIRNKRMQPAP
notes: as for B2
Take B4: the “stoichiometry N” value in data set [12] turned out to be 2.

B5: AceR^CTD: inducer-binding domain of AceR (amino acid residues 90 to 297) (domain or fragment)
chain: B4 chain
Take B5: the “stoichiometry N” value in data set [14] was found to be 2.

B6: RS1 (site 1, 22 bp) (dsDNA)
DNA 1: TTTTTTAACTTTCTTGGACTAA
DNA 2: TTAGTCCAAGAAAGTTAAAAAA
In the case of B6, the binding result in [15] is given as “binds”.

Values taken from PMC7382281 (Proceedings of the National Academy of Sciences of the …, 2020).
